B1: Disabled homolog 1 (Mus musculus), P97318 (parent)
chain: MSTETELQVAVKTSAKKDSRKKGQDRSEATLIKRFKGEGVRYKAKLIGIDEVSAARGDKLCQDSMMKLKGVVAGARSKGEHKQKIFLTISFGGIKIFDEKTGALQHHHAVHEISYIAKDITDHRAFGYVCGKEGNHRFVAIKTAQAAEPVILDLRDLFQLIYELKQREELEKKAQKDKQCEQAVYQTILEEDVEDPVYQYIVFEAGHEPIRDPETEENIYQVPTSQKKEGVYDVPKSQPNSQPLEDFESRFAAATPNRNLSMDFDELLEATKVSAVTQLELFGDMSTPPDITSPPTPATPGDAFLPSSSQTLPGSADVFGSMSFGTAAVPSGYVAMGAVLPSFWGQQPLVQQQIAMGAQPPVAQVIPGAQPIAWGQPGLFPATQQAWPTVAGQFPPAAFMPTQTVMPLAAAMFQGPLTPLATVPGTNDSARSSPQSDKPRQKMGKESFKDFQMVQPPPVPSRKPDQPSLTCTSEAFSSYFNKVGVAQDTDDCDDFDISQLNLTPVTSTTPSTNSPPTPAPRQSSPSKSSASHVSDPTADDIFEEGFESPSKSEEQEAPDGSQASSTSDPFGEPSGEPSGDNISPQDGS
partner: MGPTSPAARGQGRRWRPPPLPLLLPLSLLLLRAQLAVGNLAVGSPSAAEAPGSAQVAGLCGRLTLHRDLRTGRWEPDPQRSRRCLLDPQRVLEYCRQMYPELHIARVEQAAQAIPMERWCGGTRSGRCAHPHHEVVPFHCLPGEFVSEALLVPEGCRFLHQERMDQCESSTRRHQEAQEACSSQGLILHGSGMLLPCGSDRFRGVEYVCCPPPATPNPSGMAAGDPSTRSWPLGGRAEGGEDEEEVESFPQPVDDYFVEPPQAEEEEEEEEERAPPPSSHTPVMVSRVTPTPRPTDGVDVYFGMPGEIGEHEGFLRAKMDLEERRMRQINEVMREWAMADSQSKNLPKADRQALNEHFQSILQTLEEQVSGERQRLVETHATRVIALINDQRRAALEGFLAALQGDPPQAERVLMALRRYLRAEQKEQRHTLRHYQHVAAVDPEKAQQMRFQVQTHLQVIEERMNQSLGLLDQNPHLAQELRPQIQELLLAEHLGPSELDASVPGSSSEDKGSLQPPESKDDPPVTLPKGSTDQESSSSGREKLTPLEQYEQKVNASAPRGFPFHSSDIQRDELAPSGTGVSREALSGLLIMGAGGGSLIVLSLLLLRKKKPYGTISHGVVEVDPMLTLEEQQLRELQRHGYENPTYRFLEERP

Variants of: B1
Conditions: with aplp1_mouse Aplp1, Q03157

| Variant | effect of a mutation on the interaction |
| --- | --- |
| MSTETELQVAVKTSAKKDSRKKGQDRSEATLIKRFKGEGVRYKAKLIGIDEVSAARGDKLCQDSMMKLKGVVAGARSKGEHKQKIFLTISFGGIKIFDEKTGALQHHHAVHEISYIAKDITDHRAFGYVCGKEGNHRFVAIKTAQAAEPVILDLRDLVQLIYELKQREELEKKAQKDKQCEQAVYQTILEEDVEDPVYQYIVFEAGHEPIRDPETEENIYQVPTSQKKEGVYDVPKSQPNSQPLEDFESRFAAATPNRNLSMDFDELLEATKVSAVTQLELFGDMSTPPDITSPPTPATPGDAFLPSSSQTLPGSADVFGSMSFGTAAVPSGYVAMGAVLPSFWGQQPLVQQQIAMGAQPPVAQVIPGAQPIAWGQPGLFPATQQAWPTVAGQFPPAAFMPTQTVMPLAAAMFQGPLTPLATVPGTNDSARSSPQSDKPRQKMGKESFKDFQMVQPPPVPSRKPDQPSLTCTSEAFSSYFNKVGVAQDTDDCDDFDISQLNLTPVTSTTPSTNSPPTPAPRQSSPSKSSASHVSDPTADDIFEEGFESPSKSEEQEAPDGSQASSTSDPFGEPSGEPSGDNISPQDGS [F158V] | disrupting interaction |
| MSTETELQVAVKTSAKKDSRKKGQDRSEATLIKRFKGEGVRYKAKLIGIDEVSAARGDKLCQDSMMKLKGVVAGARSKGEHKQKIFLTISFGGIKIFDEKTGALQHHHAVHEITYIAKDITDHRAFGYVCGKEGNHRFVAIKTAQAAEPVILDLRDLFQLIYELKQREELEKKAQKDKQCEQAVYQTILEEDVEDPVYQYIVFEAGHEPIRDPETEENIYQVPTSQKKEGVYDVPKSQPNSQPLEDFESRFAAATPNRNLSMDFDELLEATKVSAVTQLELFGDMSTPPDITSPPTPATPGDAFLPSSSQTLPGSADVFGSMSFGTAAVPSGYVAMGAVLPSFWGQQPLVQQQIAMGAQPPVAQVIPGAQPIAWGQPGLFPATQQAWPTVAGQFPPAAFMPTQTVMPLAAAMFQGPLTPLATVPGTNDSARSSPQSDKPRQKMGKESFKDFQMVQPPPVPSRKPDQPSLTCTSEAFSSYFNKVGVAQDTDDCDDFDISQLNLTPVTSTTPSTNSPPTPAPRQSSPSKSSASHVSDPTADDIFEEGFESPSKSEEQEAPDGSQASSTSDPFGEPSGEPSGDNISPQDGS [S114T] | disrupting interaction |
| MSTETELQVAVKTSAKKDSRKKGQDRSEATLIKRFKGEGVRYKAKLIGIDEVSAARGDKLCQDSMMKLKGVVAGARSKGEHKQKIFLTISFGGIKIFDEKTGALQHHHAVHEISYIAKDITDHRAFGYVCGKEGNRRFVAIKTAQAAEPVILDLRDLFQLIYELKQREELEKKAQKDKQCEQAVYQTILEEDVEDPVYQYIVFEAGHEPIRDPETEENIYQVPTSQKKEGVYDVPKSQPNSQPLEDFESRFAAATPNRNLSMDFDELLEATKVSAVTQLELFGDMSTPPDITSPPTPATPGDAFLPSSSQTLPGSADVFGSMSFGTAAVPSGYVAMGAVLPSFWGQQPLVQQQIAMGAQPPVAQVIPGAQPIAWGQPGLFPATQQAWPTVAGQFPPAAFMPTQTVMPLAAAMFQGPLTPLATVPGTNDSARSSPQSDKPRQKMGKESFKDFQMVQPPPVPSRKPDQPSLTCTSEAFSSYFNKVGVAQDTDDCDDFDISQLNLTPVTSTTPSTNSPPTPAPRQSSPSKSSASHVSDPTADDIFEEGFESPSKSEEQEAPDGSQASSTSDPFGEPSGEPSGDNISPQDGS [H136R] | decreasing interaction |

Reference: IntAct's records for PubMed 12826668
